Experimental findings from CN102050878A (NAT ENGINEERING RES CT OF ANTIBODY MEDICINE SHANGHAI CO LTD, dated 2011) are described below.

The experiment concerns the target T1, 人CD20 (Raji细胞表面) (human, UniProt P11836 1-297).
T1 construct: whole, on cells; The target is native on the B lymphoma lines Raji (and Daudi); No recombinant CD20 was used; also called 高表达CD20的Raji细胞
T1 sequence (looked up): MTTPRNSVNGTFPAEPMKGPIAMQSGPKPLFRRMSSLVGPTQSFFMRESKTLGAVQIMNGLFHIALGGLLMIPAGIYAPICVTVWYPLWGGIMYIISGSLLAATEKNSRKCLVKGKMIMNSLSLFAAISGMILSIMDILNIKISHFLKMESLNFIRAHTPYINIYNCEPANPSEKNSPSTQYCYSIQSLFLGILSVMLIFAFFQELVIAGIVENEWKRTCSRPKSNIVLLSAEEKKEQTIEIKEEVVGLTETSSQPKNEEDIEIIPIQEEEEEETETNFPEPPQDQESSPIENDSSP
In words: in vitro antigen binding assay, flow cytometry on Raji cells. On the technique in general: In flow cytometry, cells or beads pass a laser one at a time.

B1: 抗人CD20人源化抗体hu3D9 (hu3D9Hb/hu3D9Lb) (antibody, human IgG1, kappa, V domains shown)
VH: EVQLVESGGGLVQPGGSLRLSCAASGYTFTNYWMQWVRQAPGQGLEWISAIYPGDGDTRYTQKFKGRATLSADKSKNTAYLQMNSLRAEDTAVYYCAREGAYGYDDGMDYWGQGTLVTVSS
VL: DIVLTQSPSSLSASVGDRVTITCRASQSIRNNLHWYQQKPGKAPKLLIKYASQSISGVPSRFSGSGSGTDFTLTISSLQPEDFATYYCQQSNSWPLTFGQGTKVEIKR
notes: Humanised antibody with 12 mouse framework residues kept
Consider B1, for which the binding result is “binds”.
